Measurements as given in patent US20180364250A1 (COLORADO STATE UNIVERSITY RESEARCH FOUNDATION, published 2018).

How the values were obtained:
[1] = target: T1, Ubiquitin (free, untagged) (human, UniProt P0CG48 1-76); assay: fluorescence intensity of the Atto532-tagged sensor against free ubiquitin concentration, single-site fit
T1 construct: also called free ubiquitin; unconjugated ubiquitin protein

Nedd8 [2] = target: T2, Nedd8 (human, UniProt Q15843 1-76); assay: fluorescence intensity, free Nedd8 titrated into Atto532-tIV
T2 construct: also called free Nedd8; Nedd8 protein

[3] = target: T1, Ubiquitin (free, untagged); assay: relative fluorescence competition against 5 nM Atto532-tagged ubiquitin on 600 nM tSR
Nedd8 [4] = target: T2, Nedd8; assay: direct titration, relative fluorescence of 10 nM Alexa488 tSR

T2 sequence (Q15843 1-76 limits assumed): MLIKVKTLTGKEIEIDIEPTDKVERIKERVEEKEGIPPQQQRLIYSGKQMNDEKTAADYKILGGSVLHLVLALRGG

B1: Atto532-tagged IsoT^ZnF (S227C) (designed binder)
chain: MPSSHHHHHHSSGLVPRGSHMKQEVQAWDGEVRQVSKHAFSLKQLDNPARIPPSGWKCSKCDMRENLWLNLTDGSILCGRRYFDGCGGNNHAVEHYRETGYPLAVKLGTITPDGADVYSYDEDDMVLDPSLAEHLSHFGIDMLKMQK
modifications: Atto532 fluorophore on the Cys of S227C (the bold C of the 2nd table)
Question: Does B1 bind [1]?
Answer: binds

B2: Atto532-tagged tIV L1 Cys (designed binder)
chain: MGSSHHHHHHSSGLVPRGSHMKQEVQAWDGEVRQVSKHAFSLKQLDNPARIPPSGWKCSKCDMRENLWLNLTDGSILCGRRYFDGSGGNNHAVEHYRETGYPLAVKLGTITPDGADVWSYDEDDMVLDPSLAEHLSHFGIDMLKMQKGSCAAAEEAELDLKAAIQESLREA
modifications: Atto532 fluorophore on the Cys of linker 1 (the bold C of the 2nd table)
notes: Two domains: IsoT^ZnF and Vps27^UIM; also called Atto532-tIV
Question: For B2, which Kd (Nedd8 [2]) is on record?
Answer: 9.4 µM

Question: Does B2 bind [1]?
Answer: binds

B3: tSR chimeric polypeptide sensor (designed binder)
chain: MPSSHHHHHHSSGLVPRGSHMTEEEQIAYAMQMSLREAGGGSDLLCKKGCGYYGNPAWQGFCSKCWREEAHKCAAERAAAE
notes: His-tag leader, S5a^UIM, linker, Ruz; also called tSR chimeric peptide universal sensor
Question: Does B3 bind [3]?
Answer: binds

B4: Alexa488-tagged tSR (designed binder)
chain: MPSSHHHHHHSSGLVPRGSHMTEEEQIAYAMQMSLREAGGGSDLLCKKGCGYYGNPAWQGFCSKCWREEAHKCAAERAAAE
modifications: Alexa488 fluorophore, attachment site not stated
notes: also called Alexa488 tSR; fluorophore-tagged tSR
Question: Does B4 bind (Nedd8 [4])?
Answer: no binding
